Assay results reported in patent US20090048164A1.
Like-named read-outs stand apart in the source and are kept apart here.

How the values were obtained:
Test in all cases: competition phage ELISA
[1] = target: mouse Mcl-1 with truncations of 151 amino acid residues at its N-terminus and 23 residues at its C-terminus (mouse) (UniProt P97287)
[2] = target: Recombinant human Bcl-xL with a 25 amino acid truncation of its C-terminus (human) (UniProt Q07817)
[3] = target: Recombinant human Bcl-xL with a 25 amino acid truncation of its C-terminus (human) (UniProt Q07817); remark: listed apart in the source

mouse Mcl-1 with truncations of 151 amino acid residues at its N-terminus and 23 residues at its C-terminus (mouse), sequence (P97287 152-308): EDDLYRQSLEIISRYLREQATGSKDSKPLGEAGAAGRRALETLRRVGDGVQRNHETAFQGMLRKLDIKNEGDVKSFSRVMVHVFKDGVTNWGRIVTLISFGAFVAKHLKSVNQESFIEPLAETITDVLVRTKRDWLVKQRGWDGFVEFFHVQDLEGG
Recombinant human Bcl-xL with a 25 amino acid truncation of its C-terminus (human), sequence (Q07817 1-208): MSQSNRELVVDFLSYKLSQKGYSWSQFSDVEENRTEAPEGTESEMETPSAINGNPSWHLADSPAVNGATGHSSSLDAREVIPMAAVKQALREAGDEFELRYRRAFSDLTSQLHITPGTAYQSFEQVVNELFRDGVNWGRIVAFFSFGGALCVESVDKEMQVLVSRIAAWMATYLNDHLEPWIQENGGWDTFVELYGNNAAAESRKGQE

Binder	Fold/wt [1] [fold]	IC50 [1] [nM]	Fold/wt [2] [fold]	IC50 [2] [nM]	IC50 [3] [nM]
PSSTMGQVGRQLAIIGDDINRRADSE [Bak BH3 Y23A, phage-displayed]	6	117	1	52	–
NLWAAQRYGRELRRMSDEFVDSFKKG [Bad BH3 wild type, phage-displayed]	–	–	1	2	1
PSSTMGQVGRQLAIIGDDINRRYDSA [Bak BH3 E26A, phage-displayed]	< 1	10	1	29	–
PSSTMGQVGRQLAIIGDDINARYDSE [Bak BH3 R21A, phage-displayed]	1	17	2	87	–
QEDIIRNIARHLAQVGDSMARSIPPG [Bid BH3 D20A, phage-displayed]	1	84	1	13	–
QEDIIRNIARHLAQVGDSMDRSIPAG [Bid BH3 P25A, phage-displayed]	1	87	1	16	–
QEDIIRNIARHLAQVGDSMDRSIAPG [Bid BH3 P24A, phage-displayed]	1	90	1	14	–
PSSTMEQVGRQLAIIGDDINRRYDSE [Bak BH3 G6E, phage-displayed]	1	11	< 1	14	–
QEDIIRNIARHLAQVGDSMDASIPPG [Bid BH3 R21A, phage-displayed]	1	132	3	32	–
ASSTMGQVGRQLAIIGDDINRRYDSE [Bak BH3 P1A, phage-displayed]	1	18	1	31	–
QEDIIRNIARHLAQVGDSMDRSIPPE [Bid BH3 G26E, phage-displayed]	1	94	2	17	–
PASTMGQVGRQLAIIGDDINRRYDSE [Bak BH3 S2A, phage-displayed]	1	16	1	28	–
PSATMGQVGRQLAIIGDDINRRYDSE [Bak BH3 S3A, phage-displayed]	1	17	1	25	–
QEDIIRNIAAHLAQVGDSMDRSIPPG [Bid BH3 R10A, phage-displayed]	1	130	2	26	–
QEDIIRNIARALAQVGDSMDRSIPPG [Bid BH3 H11A, phage-displayed]	1	89	1	9	–
QEDIIRNIARHLAQVGDSMDRAIPPG [Bid BH3 S22A, phage-displayed]	1	128	1	13	–
QEDIIANIARHLAQVGDSMDRSIPPG [Bid BH3 R6A, phage-displayed]	1	88	3	31	–

Binder	Fold/wt [1] [fold]	IC50 [1] [nM]	Fold/wt [2] [fold]	IC50 [2] [nM]	IC50 [3] [nM]
PSSTMGQVGAQLAIIGDDINRRYDSE [Bak BH3 R10A, phage-displayed]	1	29	3	163	–
QEDIIRNIARHLAQVGDAMDRSIPPG [Bid BH3 S18A, phage-displayed]	1	104	1	16	–
PSSTMGAVGRQLAIIGDDINRRYDSE [Bak BH3 Q7A, phage-displayed]	1	20	1	48	–
PSSTMGQVGRQLAIIGDDINRRYDSE [Bak BH3 wild type, phage-displayed]	1	21	1	49	–
QEDIIRNIARHLAQVGDSMDRSIPPG [Bid BH3 wild type, phage-displayed]	1	99	1	11	–
PSSAMGQVGRQLAIIGDDINRRYDSE [Bak BH3 T4A, phage-displayed]	1	14	1	28	–
PSSTMGQVGRQLAIIGDAINRRYDSE [Bak BH3 D18A, phage-displayed]	1	14	1	33	–
PSSTMGQVGRQLAIIGDDINRRYASE [Bak BH3 D24A, phage-displayed]	< 1	9	1	30	–
PSSTMGQVGRQLAAIGDDINRRYDSE [Bak BH3 I14A, phage-displayed]	1	14	1	66	–
QEDIIRNIARHLAQVGDSMDRSAPPG [Bid BH3 I23A, phage-displayed]	1	142	1	15	–
PSSTMGQVGRALAIIGDDINRRYDSE [Bak BH3 Q11A, phage-displayed]	1	16	5	238	–
PSSTAGQVGRQLAIIGDDINRRYDSE [Bak BH3 M5A, phage-displayed]	1	18	< 1	15	–
PSSTMGQVGRQLAIIGDDIARRYDSE [Bak BH3 N20A, phage-displayed]	1	23	2	111	–
QEDIIRAIARHLAQVGDSMDRSIPPG [Bid BH3 N7A, phage-displayed]	1	54	1	10	–
PSSTMGQVGRQLAIIGDDINRRYDAE [Bak BH3 S25A, phage-displayed]	1	18	1	31	–
PSSTMGQVGRQLAIIGDDINRAYDSE [Bak BH3 R22A, phage-displayed]	1	16	1	37	–
QEDIIRNIARHLAAVGDSMDRSIPPG [Bid BH3 Q14A, phage-displayed]	1	124	1	13	–
